Test results as given in patent US20260274981A1 (VIB VZW, published 2026).

T1: cynomolgus TfR overexpressed on CHO cells (cynomolgus monkey, UniProt Q5RDH6 1-760 (Pongo abelii entry))
T1 construct: construct is TfR followed by an HA tag and IRES-GFP; also called cynomolgus monkey TfR1; NHP TfR
T1 chain: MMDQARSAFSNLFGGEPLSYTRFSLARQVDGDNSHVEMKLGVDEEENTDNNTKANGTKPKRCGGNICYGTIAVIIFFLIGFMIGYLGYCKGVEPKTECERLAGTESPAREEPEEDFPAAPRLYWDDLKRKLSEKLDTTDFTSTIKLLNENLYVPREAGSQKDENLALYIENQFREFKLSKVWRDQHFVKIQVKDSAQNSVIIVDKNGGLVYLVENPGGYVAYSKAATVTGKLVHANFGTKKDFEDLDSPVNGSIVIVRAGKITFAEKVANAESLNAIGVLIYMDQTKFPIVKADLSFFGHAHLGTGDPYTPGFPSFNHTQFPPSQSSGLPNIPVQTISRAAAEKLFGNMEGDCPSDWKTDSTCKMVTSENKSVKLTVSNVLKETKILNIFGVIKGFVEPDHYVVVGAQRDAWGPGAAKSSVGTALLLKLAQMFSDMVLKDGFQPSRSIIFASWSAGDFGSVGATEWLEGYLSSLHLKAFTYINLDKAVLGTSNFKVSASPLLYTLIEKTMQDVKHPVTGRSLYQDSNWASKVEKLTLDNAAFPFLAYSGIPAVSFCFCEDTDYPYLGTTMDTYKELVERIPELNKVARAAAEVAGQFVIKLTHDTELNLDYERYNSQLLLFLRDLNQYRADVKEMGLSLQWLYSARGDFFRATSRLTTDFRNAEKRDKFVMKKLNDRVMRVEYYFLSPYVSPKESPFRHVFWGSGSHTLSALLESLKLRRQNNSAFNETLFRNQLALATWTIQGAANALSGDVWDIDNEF

B1: BBB00533_h10 (VHH)
VHH: EVQLVESGGGLVQPGGSLRLSCTASGRTFNYAMGWFRQAPGKNREFVATIDWKDGSSYYLDSVKGRFTISRDNAKNTVYLQMNSLRPEDTAVYYCAVGDGDYCSTYTCAAEVEYDYWGQGTLVTVSS
notes: The sheet prints R72K and D82N (IMGT) against BBB00533_h01
B2: BBB00533_h13 (VHH)
VHH: EVQLVESGGGLVQPGGSLRLSCTASGRTFNYAMGWFRQAPGKNREFVATIDWKDGSSYYADSVKGRFTISRDDAKNTVYLQMNSLRPEDTAVYYCAVGQGDYCSTYTCAAEVEYDYWGQGTLVTVSS
B3: BBB00533_h17 (VHH)
VHH: EVQLVESGGGLVQPGGSLRLSCTASGRTFNYAMGWFRQAPGKNREFVATIDWKQGSSYYADSVKGRFTISRDDAKNTVYLQMNSLRPEDTAVYYCAVGEGDYCSTYTCAAEVEYDYWGQGTLVTVSS

What was measured:
[1] = target: T1, cynomolgus TfR overexpressed on CHO …; assay: flow cytometry, second of two columns 'Binding to cyno TfR1 EC50 (M)' (first column: ND); paragraph 156 calls it the capacity to compete for binding on cynomolgus monkey TfR1, competitor not named
[2] = target: T2, human TfR overexpressed on CHO cells (human, UniProt P02786 1-760); assay: flow cytometry, second of two columns 'Binding to human TfR1 EC50 (M)' (first column: ND); paragraph 156 calls it the capacity to compete for binding on human TfR1, competitor not named
T2 construct: construct is TfR followed by an HA tag and IRES-GFP; also called hTfR; human transferrin receptor

[3] = target: T2, human TfR overexpressed on CHO cells; assay: flow cytometry, first of two columns 'Binding to human TfR1 EC50 (M)' (second column: ND); paragraph 156 calls it the capacity to compete for binding on human TfR1, competitor not named
[4] = target: T1, cynomolgus TfR overexpressed on CHO …; assay: flow cytometry, first of two columns 'Binding to cyno TfR1 EC50 (M)' (second column: ND); paragraph 156 calls it the capacity to compete for binding on cynomolgus monkey TfR1, competitor not named

Row | Binder | EC50 [1] [nM] | EC50 [2] [nM] | EC50 [3] [nM] | EC50 [4] [nM]
1 | B1 | 14 | 110 |  | 
2 | B2 |  |  | 560 | 240
3 | B3 |  |  | 290 | 120
